# Biological target: T1, ch‐TOG (CKAP5) TOG domain 1 (TOG D1, residues 1–250) (UniProt Q14008 1-250, AlexaFluor 555 or 405 (NHS ester) on ~1% of the protein in the droplet assays; 2H 15N labeled for the PRE experiments)
# T1 construct: microtubule-associated protein ch-TOG (CKAP5), TOG domain 1, residues 1–250; also called TOG domain 1 (D1); source: E. coli BL21 Star (DE3), purified (HisTrap, Superdex 75, TEV cleavage, second HisTrap)
# Assay: NMR paramagnetic relaxation enhancement (PRE); TROSY-based 1HN R2 at 850 MHz, 25°C; NMR-invisible hnRNPA2 LC with a paramagnetic label at S285C or S329C mixed with 2H 15N TOG D1; paramagnetic against diamagnetic samples
# Details: both partners purified
# T1 sequence (Q14008 1-250): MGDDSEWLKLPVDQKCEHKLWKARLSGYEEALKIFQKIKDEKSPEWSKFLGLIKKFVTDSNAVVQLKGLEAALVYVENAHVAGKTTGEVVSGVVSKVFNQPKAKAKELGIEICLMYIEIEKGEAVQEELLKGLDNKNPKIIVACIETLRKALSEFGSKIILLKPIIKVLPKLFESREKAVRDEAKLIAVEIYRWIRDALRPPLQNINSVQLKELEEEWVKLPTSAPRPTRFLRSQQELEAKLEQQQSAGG
binder,measurement,value
"hnRNPA2 LC S285C with a paramagnetic label (MTSL) at the engineered cysteine (domain or fragment, human, UniProt P22626-2 190-341, looked up, small (~120 Da) paramagnetic label (MTSL) at the engineered cysteine 285, hnRNPA2 low complexity domain, human, residues 190–341; Purified and labeled as described in Ryan et al, 2018; source: E. coli BL21 Star (DE3), purified from inclusion bodies (His-tag purification), MTSL-labeled) GRGGNFGFGDSRGGGGNFGPGPGSNFRGGSDGYGSGRGFGDGYNGYGGGPGGGNFGGSPGYGGGRGGYGGGGPGYGNQGGGYGGGYDNYGGGNYGCGNYNDFGNYNQQPSNYGPMKSGNFGGSRNMGGPYGGGNYGPGGSGGSGGYGGRSRY",Kd,> 100 µM
"hnRNPA2 LC S329C with a paramagnetic label (MTSL) at the engineered cysteine (domain or fragment, human, UniProt P22626-2 190-341, looked up, small (~120 Da) paramagnetic label (MTSL) at the engineered cysteine 329, hnRNPA2 low complexity domain, human, residues 190–341; Purified and labeled as described in Ryan et al, 2018; source: E. coli BL21 Star (DE3), purified from inclusion bodies (His-tag purification), MTSL-labeled) GRGGNFGFGDSRGGGGNFGPGPGSNFRGGSDGYGSGRGFGDGYNGYGGGPGGGNFGGSPGYGGGRGGYGGGGPGYGNQGGGYGGGYDNYGGGNYGSGNYNDFGNYNQQPSNYGPMKSGNFGGSRNMGGPYGGGNYGPGGCGGSGGYGGRSRY",Kd,> 100 µM
